Assay results published in PMC3445459.

Legend:
[1] = biological target: HIV-1 integrase E85F, 6xHis-tagged (HIV-1 (NL4-3))
[2] = biological target: HIV-1 integrase E85F, 6xHis-tagged (HIV-1 (NL4-3)); remark: listed apart in the source
[3] = biological target: LEDGF/p75 (UniProt O75475); test: AlphaScreen or HTRF; IN-LEDGF/p75 interaction assay as previously described (ref. 32), mutant IN proteins in place of WT; signal relative to WT IN
[4] = biological target: HIV-1 integrase K103E, 6xHis-tagged (HIV-1 (NL4-3))
[5] = biological target: HIV-1 integrase W108F, 6xHis-tagged (HIV-1 (NL4-3))

Chain of UniProt O75475 (O75475 whole entry): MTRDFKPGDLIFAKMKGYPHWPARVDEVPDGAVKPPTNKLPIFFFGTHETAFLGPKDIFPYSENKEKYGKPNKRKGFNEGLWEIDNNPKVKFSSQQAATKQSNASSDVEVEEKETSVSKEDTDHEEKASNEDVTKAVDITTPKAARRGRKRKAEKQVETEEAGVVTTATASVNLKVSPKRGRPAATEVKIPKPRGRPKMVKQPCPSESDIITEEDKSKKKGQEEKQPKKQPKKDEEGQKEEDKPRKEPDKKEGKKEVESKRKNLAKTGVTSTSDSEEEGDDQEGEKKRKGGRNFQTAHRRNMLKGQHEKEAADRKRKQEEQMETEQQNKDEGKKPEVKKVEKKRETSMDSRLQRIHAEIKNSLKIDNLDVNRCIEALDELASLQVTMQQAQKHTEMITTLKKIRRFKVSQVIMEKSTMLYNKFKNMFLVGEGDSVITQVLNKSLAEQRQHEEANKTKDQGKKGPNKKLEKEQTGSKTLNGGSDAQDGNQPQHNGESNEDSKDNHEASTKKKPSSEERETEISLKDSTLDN

Substance: HIV-1 integrase E85F, 6xHis-tagged (enzyme)
- in vitro strand transfer activity with 21-mer DNA substrate, relative to WT IN [1]: 37 % of WT
- in vitro strand transfer activity with pre-processed 19-mer DNA substrate, relative to WT IN [2]: 1.6 fold of WT

Substance: HIV-1 integrase K103G, 6xHis-tagged (enzyme)
- interaction relative to WT IN (of the WT interaction) [3]: < 0.33
- percent of the WT interaction level [3]: 30 % of WT

Substance: HIV-1 integrase K103E, 6xHis-tagged (enzyme)
- in vitro strand transfer activity with pre-processed 19-mer DNA substrate, relative to WT IN [4]: 29 % of WT

Substance: HIV-1 integrase W108F, 6xHis-tagged (enzyme)
- in vitro strand transfer activity with pre-processed 19-mer DNA substrate, relative to WT IN [5]: 30 % of WT
